Test results from PMC2063867 (The Journal of Cell Biology, 2006).

B1: phospho–S273-paxillin (untagged WT-paxillin synthesized in vitro and incubated with CA-myc-PAK1) (natural protein)
chain: not shown
modifications: phosphoserine at 273
B2: FLAG-GIT1 (expressed in CHO-K1 cells) (natural protein)
chain: MSRKGPRAEVCADCSAPDPGWASISRGVLVCDECCSVHRSLGRHISIVKHLRHSAWPPTLLQMVHTLASNGANSIWEHSLLDPAQVQSGRRKANPQDKVHPIKSEFIRAKYQMLAFVHKLPCRDDDGVTAKDLSKQLHSSVRTGNLETCLRLLSLGAQANFFHPEKGTTPLHVAAKAGQTLQAELLVVYGADPGSPDVNGRTPIDYARQAGHHELAERLVECQYELTDRLAFYLCGRKPDHKNGHYIIPQMADSLDLSELAKAAKKKLQALSNRLFEELAMDVYDEVDRRENDAVWLATQNHSTLVTERSAVPFLPVNPEYSATRNQGRQKLARFNAREFATLIIDILSEAKRRQQGKSLSSPTDNLELSLRSQSDLDDQHDYDSVASDEDTDQEPLRSTGATRSNRARSMDSSDLSDGAVTLQEYLELKKALATSEAKVQQLMKVNSSLSDELRRLQREIHKLQAENLQLRQPPGPVPTPPLPSERAEHTPMAPGGSTHRRDRQAFSMYEPGSALKPFGGPPGDELTTRLQPFHSTELEDDAIYSVHVPAGLYRIRKGVSASAVPFTPSSPLLSCSQEGSRHTSKLSRHGSGADSDYENTQSGDPLLGLEGKRFLELGKEEDFHPELESLDGDLDPGLPSTEDVILKTEQVTKNIQELLRAAQEFKHDSFVPCSEKIHLAVTEMASLFPKRPALEPVRSSLRLLNASAYRLQSECRKTVPPEPGAPVDFQLLTQQVIQCAYDIAKAAKQLVTITTREKKQ

What was measured:
Assay in all cases: co-IP
[1] = biological target: T1, FLAG-GIT1 (synthesized in vitro) (UniProt Q9Y2X7 1-761)
T1 sequence: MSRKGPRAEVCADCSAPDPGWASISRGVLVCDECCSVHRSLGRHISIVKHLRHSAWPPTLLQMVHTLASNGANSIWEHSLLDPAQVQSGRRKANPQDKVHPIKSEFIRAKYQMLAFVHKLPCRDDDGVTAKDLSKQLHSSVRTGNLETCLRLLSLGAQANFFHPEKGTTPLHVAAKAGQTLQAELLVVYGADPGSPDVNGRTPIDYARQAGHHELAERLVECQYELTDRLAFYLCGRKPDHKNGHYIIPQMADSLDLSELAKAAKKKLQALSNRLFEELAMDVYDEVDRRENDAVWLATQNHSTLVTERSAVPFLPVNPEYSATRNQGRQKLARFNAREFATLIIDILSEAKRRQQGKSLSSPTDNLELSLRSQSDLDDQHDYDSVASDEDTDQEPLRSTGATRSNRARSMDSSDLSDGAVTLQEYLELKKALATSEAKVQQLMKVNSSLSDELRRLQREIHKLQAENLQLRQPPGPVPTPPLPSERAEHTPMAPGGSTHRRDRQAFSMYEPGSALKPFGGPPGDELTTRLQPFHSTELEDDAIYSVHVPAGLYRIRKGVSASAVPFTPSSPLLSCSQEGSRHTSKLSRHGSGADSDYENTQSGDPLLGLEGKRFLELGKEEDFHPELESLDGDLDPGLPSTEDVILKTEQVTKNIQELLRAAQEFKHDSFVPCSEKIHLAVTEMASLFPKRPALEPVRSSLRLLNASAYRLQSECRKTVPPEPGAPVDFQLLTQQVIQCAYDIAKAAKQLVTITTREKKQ

[2] = biological target: S273A-paxillin-GFP (UniProt P49024 1-559, S273A)
Sequence of S273A-paxillin-GFP (P49024 whole entry S273A): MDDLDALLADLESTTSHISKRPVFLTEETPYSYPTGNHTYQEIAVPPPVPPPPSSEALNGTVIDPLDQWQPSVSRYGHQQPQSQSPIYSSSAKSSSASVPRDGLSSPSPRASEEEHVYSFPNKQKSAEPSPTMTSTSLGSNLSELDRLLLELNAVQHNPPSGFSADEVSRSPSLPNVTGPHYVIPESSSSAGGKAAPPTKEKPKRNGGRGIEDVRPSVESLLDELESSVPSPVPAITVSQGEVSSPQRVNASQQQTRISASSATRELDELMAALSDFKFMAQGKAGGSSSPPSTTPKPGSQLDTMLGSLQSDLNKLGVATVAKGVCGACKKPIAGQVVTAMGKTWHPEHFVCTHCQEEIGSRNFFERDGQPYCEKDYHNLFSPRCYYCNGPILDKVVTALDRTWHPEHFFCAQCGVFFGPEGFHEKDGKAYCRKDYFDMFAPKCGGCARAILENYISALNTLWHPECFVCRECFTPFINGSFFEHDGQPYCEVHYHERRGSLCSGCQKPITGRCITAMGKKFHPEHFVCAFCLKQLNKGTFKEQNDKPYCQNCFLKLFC

[3] = biological target: S273D-paxillin-GFP (UniProt P49024 1-559, S273D)
Sequence of S273D-paxillin-GFP (P49024 whole entry S273D): as the sequence (P49024 whole entry S273A) above, with A273D counted along it

| Binder | fold increase of phospho–S273-paxillin bound to FLAG-GIT1 with CA- versus KD-PAK [1] [fold] | fold decrease of GIT1 binding against WT-paxillin [2] [fold] | fold increase of GIT1 binding against WT-paxillin [3] [fold] |
| --- | --- | --- | --- |
| B1 | 7 | – | – |
| B2 | – | 2 | ~3 |
